Consider two molecules from publication PMC4338625, “Comparison of MAPK specificity across the ETS transcription factor family identifies a high-affinity ERK interaction required for ERG function in prostate cells” (Cell Communication and Signaling : CCS, 2015).

For assay [1], the target named is ERK2 (pERK2, activated by co-expression with constitutively active MEK) (UniProt P63086). Description: MST; 200 nM fluorescently labeled (RED-NHS) ERK2 incubated 30 minutes at room temperature in the dark with different concentrations of purified ETS1 or ERG; standard glass capillaries; NanoTemper Monolith NT.115, LED 80%, IR laser 80%.
Assay [2] has as its target T1, ETS1, full-length human, 6x His-tagged (human, UniProt P14921 1-441).
T1 construct: human ETS1, full-length cDNA in pET28a
T1 sequence (looked up): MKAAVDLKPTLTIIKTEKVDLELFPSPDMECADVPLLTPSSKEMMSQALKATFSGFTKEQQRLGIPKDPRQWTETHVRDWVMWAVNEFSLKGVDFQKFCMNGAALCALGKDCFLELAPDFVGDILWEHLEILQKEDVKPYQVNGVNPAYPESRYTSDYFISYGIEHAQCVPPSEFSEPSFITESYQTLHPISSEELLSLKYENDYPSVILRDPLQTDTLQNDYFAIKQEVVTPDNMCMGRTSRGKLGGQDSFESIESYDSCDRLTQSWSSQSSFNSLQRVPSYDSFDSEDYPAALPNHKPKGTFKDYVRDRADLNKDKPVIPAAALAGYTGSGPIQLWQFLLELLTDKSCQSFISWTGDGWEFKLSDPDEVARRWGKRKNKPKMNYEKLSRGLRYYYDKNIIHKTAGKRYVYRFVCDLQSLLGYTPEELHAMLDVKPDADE
The description is as above. The following applies: both partners purified.

In the case of “ERG (isoform 1), full-length human, 6x His-tagged (natural protein)”, the dissociation constant (Kd) in assay [1] stood at 230 nM.

B1: ERK2 (pERK2, activated by co-expression with constitutively active MEK) (enzyme, UniProt P63086 1-358, looked up)
chain: MAAAAAAGPEMVRGQVFDVGPRYTNLSYIGEGAYGMVCSAYDNLNKVRVAIKKISPFEHQTYCQRTLREIKILLRFRHENIIGINDIIRAPTIEQMKDVYIVQDLMETDLYKLLKTQHLSNDHICYFLYQILRGLKYIHSANVLHRDLKPSNLLLNTTCDLKICDFGLARVADPDHDHTGFLTEYVATRWYRAPEIMLNSKGYTKSIDIWSVGCILAEMLSNRPIFPGKHYLDQLNHILGILGSPSQEDLNCIINLKARNYLLSLPHKNKVPWNRLFPNADSKALDLLDKMLTFNPHKRIEVEQALAHPYLEQYYDPSDEPIAEAPFKFDMELDDLPKEKLKELIFEETARFQPGYRS
modifications: phosphorylated by co-expressed constitutively active MEK (pERK2); fluorescently labeled with amine reactive RED-NHS dye (Monolith Protein Labeling Kit RED-NHS)
notes: also called ERK2 kinase; source: co-expressed with constitutively active MEK, purified from bacteria as described [52]
The molecule B1 had a Kd in assay [2] of 1790 nM.

Broadly, the Kd is the equilibrium constant for the complex coming apart. The low end stands for tighter binding, the high end for weaker binding.
